# Reference: the domain aggregation screens of Martell et al. (2025)
# Assay: soluble fraction after stress (log2 fold change); higher = more stays soluble; pooled small domains, quantitative proteomics
# Conditions: stress: 75 degC
# 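Note: 20 min heating vs room temperature control held 20 min.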
row,Sequence,soluble fraction (log2)
1,HMDSPVEEWANRGLAYDPSLVTETMAKLYAKQGQIGLARKAFKRLALIYPEKSVYFAFQLKKLSNN,-2.01
2,HMDSPVLTAEIKALIDKELEQNAVKLATGLKKQRKRATDIHDALIRQGHEVSYRTVVRYIRNKTAQTS,-0.751
3,HMDSTSEILKVIQNIVKKEDPYHPLSDDKISNLLNDLDYQISRRTVAKYRDILTIPSSSKRRKL,-0.256
4,HMDSVEMFSPILGMNANMDLDTLTQTRDKLLEKYKDDEQLIGLVNKTYDYFNEILLKQFLIEELEKNE,0.0898
5,HMDSVFGVVTSSDGVKLRKEASTISKVLTVLPYGTEVDVDRIGSEWIRIVTDGGQKGYVSADYLAVREGER,0.682
6,HMDSVPEEQLRQLALDKAKEVKRWGQPVELAKMNAHDRRIIHINLQDDPEIETRSEGEGALKSVIISLKK,0.0979
7,HMDSYADVLSDYRGKYKTNTISGLKGLRDKIREDMLAAADSLDFEKAALLRDEMNDLNKKIELKEKT,≥ 1.04
8,HMDTERLYAYAWQTHLKQFGLNISEEEIRQFVGVDDRIVHSFYAKTVPLDDFENTMFSLGEIIQQSL,-2.58
9,HMDTFNVIARQEIDGILYEYKIMTVEDYKNQSPENLAVIYENIKAVMEQYDLSEDDADAILVDLLG,-1.14
10,HMDTIRINSGSTVKEVAEYLGIPVPEVIKKLMSMGELATLTKTLSDDHIEVLAEEFEKKIKIVHVGEEAD,-0.458
11,HMDTITDSYTLEKGKLRAKVMEYELPESKKKEYSATFEYRGVYYHMIGIIEKADFEEILKNLHFP,-0.168
12,HMDTIVVAARSIQARQTLTESDLRVEEQEIGAASDKYYTDIAEAVGLVSSRRLSPGQPILRTM,-0.352
13,HMDTLKDFISGVSIVFENKYSVGDNVTIGDFRGDVIELGMKTTKIRAYTGEVLIIPNHLVEKVINH,-1.56
14,HMDTLRARQEAAYRFLSAIAGDWRNYEEANRALFAGDAARFQDLTESWPADVRDHARHLASAAFSS,-0.8
15,HMDTNAIIGLRIKNLRTEKKYTLKYLSENTGLSIGFLSQLERGMTSIAIDSLDKISKVLDVELSSFFT,-1.69
16,HMDTNELIDRYVNEVGQHLPRKTRADIEMELRSLLLDTLEEQSGGEPTPKMAAEVLREFGHPEEIAAQYH,-0.386
17,HMDTRKKLEQIFKLFDKTGTGMVNIDEFKSVLKLFMEEIDEKFGNYFIAYFDENGDGKIEFEEFADVVL,-0.444
18,HMDTSAHEVLSAIRSIIEDEDKRHPLSDEAITSRLSQQGYDIARRTVAKYRERLGLPVARLRRE,-0.26
19,HMDVALEALDESDGAVRLQFSGALQTYLNDSTTAASLEAISKTFRAFYEAAGRPVDTLEVYAAGEPVT,0.105
20,HMDVDKQLDQLLAAMIPDKSLRQTIKTKAFNELVDNELADKDISSWTKQTMDVFMTRAEDMFGAM,-0.274
21,HMDVEMLIDKYQLNDSEAEVLRFMKKNRQSLKTIGIRDVAKATYVSTATIINMAKKIGYSGYSELVFALGN,-1.69
22,HMDVNAQAGYDKLQSNQLDGARHDYEQALKTDPNNVDTLLALAAIAQRQGRSADADGYRQRAIDAD,-0.378
23,HMDVNHVIIDHKGNSIQAIIDSIDLDNVYYQSKIKKESEVIDIDKVYFIFNDFDRVYHYDWSYYENL,-0.166
24,HMDVNLSIRSGETIGIIGSTGSAKSTLVQLIPRLYDTTEGEVLVGGVNVKNYDLEALRNSVAMVLQKN,-0.112
25,HMDVPNLVGEEIKDVRRTLRHFQLEVIGEGSKIVSQVPKHGQRLPENTTIRVYLN,-0.0339
26,HMDVPNLVGKTLEEAENELKKLNIRYNVTERADEAPKDTVIEQSPKPYEAMEPGTVVNLVISSGPA,≥ 1.04

row,Sequence,soluble fraction (log2)
1,HMDVQPHIYLRKLDQFWPADLHSLILYTLDGRRLWSADSGNIPALPHRASSLVILEATWDNGQRTRRKQFL,-1.75
2,HMDVRKSISDLKALGLSDAAVTVYGTIGNKPVHIDKIVSELGIPVFKVLTALTQLEMKGLVTAMQGRMYVL,-2.13
3,HMDVSASEVGLTGRQTDVLSLMVKGRSNRDIAELLGLSEGTVKIHITAIFKALGVASRTQALVAAARLGLK,-0.82
4,HMDVSLVEQTQRDILEYISKNNSNAQLPKEQEFVGLLGVSRVVVREALSRLRALGIIETKRKKGTVVVVPE,-1.09
5,HMDWVAYGAELRRRRLLAGWSVAELSRRTNLSTSIIYQVEQARTRLRPSQLTLAKLAAALGMP,-3.1
6,HMDYAQAQRQAESAIALRPDVERLRLLLIYALQKQGKLREAEQAAADAIKSGLDTPALRQARANLRP,-0.732
7,HMDYGSISFINWSIEVLSVIKTRLDRGDKIIDEVSGEKYTASSFEKFVRKNFSSYIFSQVYAEDHKK,-2.73
8,HMDYHTIQTGDKGDEVLRLQQALAEYGYYEGDLDGRFGQQTRRAVERFQYSHGLTADGIAGRNTLSVLYD,-0.181
9,HMDYIITHYPDNKRFETQVDGVVAFVQYRLSGDKLDIIHTIVPPAIGGRGIAAALVKYAYDYAIENGMK,-2.13
10,HMDYKSKLQELVQTEKRTVEYKLVDESGPAHNKSFTFEVVISGIKYGSGTGASKKIAEQNAAKEALEKLA,-0.277
11,HMDYKSTLQELVQTVKKSVTYEVIDEEGPSHNKTFTSIVKIDGIVMGKGTAGSKKASEQEAARDALSKR,0.42
12,HMDYLYHNGKEIDQGSIMYKMEDYSDGIFELQSAKYADGTELDEKELEELESTQELIDWVMIDFVS,0.675
13,HMDYNSYGLTERELELVDYVLKGYSRKEMAEASGLKVNTIGSYMKKIYRKLNIHNRTELKERFI,-0.119
14,HMDYNYLVFVTNTGPRSIAVEDLEMTVSDGKLVVSSGADGETFDLSTLTKMYFSDAAVVSINDV,-1.1
15,HMDYQYILVDVKDRIATVTINRPEYSNAFARESYYEIADAMNTLGARDDVGVIVITGAGKHFSAGGDIKRF,-0.777
16,HMDYYKILGLSTSATLDQIKKAFRQLAIEFHPDKNPNNPTAEDKFQRISEAYAVLSNPEKRAEYDRSY,-0.0123
17,HMEAAETAVVTGTIVNIRSGPTLDFEAFAQVKQGDRLPVLDKFYNWYYVKLPSGVNGWISGQLVRIEQ,-2.86
18,HMEAELNSLVKTYENMKPKAAAQVFEELDMDVLLDVVERMKEKKLAPILAQVTPTRAKEITYELTQRR,-0.102
19,HMEAFDYLGRRTRDLLERQGWTTVPLVRDAYLAVPGGERLLQVPGFGRKSLREVRRWLWLQIGDPRFE,-1.25
20,HMEAIYKKNKNLIHTVIRDNFPFLIDTADYEDAFQEGSIGLIRAIDRFDDGLEYKFSSYAYTAIRNQIA,-1.15
21,HMEALGLSPRQVDVLRLLVEGRSNKMIMRELELSESTVKTHLQAIFRRLGVSSRTQAVVAAARLGL,-1.2
22,HMEALSAREIEILQALETGASNRELAKMLFISEATVKTHLVHIYQKLGVGTRTAAITEARERRV,-2.1
23,HMEANAYFDAYPDVAAEWARLSGSDEGKATLSAIGVTTPQQFAQYHYTTFGSKENRNAPVGYTP,0.072
24,HMEANPLTDREKEVLELVADGKNTKEIAQELSIKSGTVRNYISMILEKLEVKNRIEAITRSKEKGWF,-0.161
25,HMEAPMPIFWRPQFRIGHDDIDADHRYLILLINTVELVLRFPDDPRNVELALTELRRYAEDHFEREER,-0.0783
26,HMEAQAHYDAIYKAHPNADSIAQSAEFKAWVDAQPSVVRNAYWQLFDPKEGGTAEQIVEVFDAFVKSS,0.327

row,Sequence,soluble fraction (log2)
1,HMEDDIRSSIRTLDQFISKNQITLSKDVKNYILQLLSNDRMVTINELEKIKIYYDSNENIDLDTVKILLN,-0.796
2,HMEDEEILNEIRHTEQYVYYFGNYIMEHHVSRGLSKEKVIASLARELQIEIADIREDFDGMIEQIKTNILN,-0.329
3,HMEDESSIERYLGSGAIKGIGPSLAARIVKKFGKDTFRIIEQEPERLAEIKGISERKAMEISTLMEEK,-0.056
4,HMEDGRLPPPGTVLRREYKGRAVFVRVLPKGFEFEGEVYRSLSAIAAKVTGSHWNGFRFFGLHE,-3.01
5,HMEDHMVVFGKGGRITRLPDKATVLEYLDAANFFASRSSVVKVNGKLASLDQTLRDGDSIEIVD,-0.407
6,HMEDINAVLAENLRRLRESRRLSLDAVARLTGVSKSMLGQIERGEVNPTVSTMWKIAGGLKVNFTALFRRE,-3.79
7,HMEDIQPSVIFQNNMIDGFKKFGVSFLQNRRNVNVNTLNGLASAGTYPKWQQLLVNKISYIDMLLSTGG,0.0954
8,HMEDKIIVTVPGEYHLERIDRFLAANLEEDLSRSLIQRYIRENLITVNGEAVRANYKVKTDDEILITFPQ,-0.842
9,HMEDLAERLDNLSTMYAKMDPVRAAQVLLESKNKSENIEVLKRLKPKSLGLILENMPPREAYDYVSELQ,0.0743
10,HMEDLGYVKVASQTAAIRKSAAVQAGQIGTVHEGETYRYLGEEEGWYLVEYNGQKAYISWDDGEL,-0.323
11,HMEDMMKALLDVVRAQHTATEGSEERPFDINDIIDMALNITGRPEEPEEQQELSDTIQKLAESLAPDIFP,-0.424
12,HMEDNKLKNEIKNELVSHLEKPYSVEDLADALKYHGSAAFKLIVQELAILERERAVVVTHDGNFKINSS,-1.11
13,HMEDPAVYYKILQIPPDASLSEIHRAFEKITSAWDPERYPHISSWKETSAKKLQEIRNAYEKLLILRETG,-0.269
14,HMEDPFLWVEKLGSSDWIEREESAEKLLEAGEASVEALRTALTHPDLEVRERVRELLSVISPL,0.409
15,HMEDPRVTEIKNLQQDLAKKFKPTQGPASASDAVERVTAITTVMTKVAALPEDLRSEAMQPGKKM,-0.327
16,HMEDQFWQNRAEMALASARRAGRIVTYAEMADAADIPAPQRIHKLTLWLEATMRQDHASGQPLRAALV,0.0883
17,HMEDQITNQQFTMTKQSILDLLVKKSYPPYELANELHLKKEEVLPIIRFLIAENEIHFKDGMLHLPH,-1.01
18,HMEDQLDSLKDIIYDYLENNELYYNDLQEFKKIIIENMEFIHPNLNHKLIDNNFFKLINFKLEYNF,-0.152
19,HMEDSSSILNRMRKLIALLNRASEAYYKENKEIISNFEYDRLYDELLGLESRSNTVLSGSPTYKV,-1.87
20,HMEDTFEYPVSVNGKLRFKIELPVSMEKDEIRNIVLNDERAKKWLATGTLTNLIVVPNRIINIVIK,-0.528
21,HMEDTSTLSIKHKIKELINQESPQAILSDDKLVELLAAQGIKIARRTIAKYRETMNIPTSAERKRQKRPP,0.0599
22,HMEDVTLSLVVGEDLDGERLDVFLTWKLDRTRSQVQALIRDGKVRLEQGQRARPSMVVRSGMGISVSLEPR,-2.15
23,HMEDYYKILGVSKDASIDDIKKSYRKLSLQNHPDRNKSPQASENFAKINSAYEVLSDQRKKRQYDMQQSM,-0.073
24,HMEEAQWEFKWENTDSAEIHGPHSSSEMLKWQENSFFAKGVYVRKVGGDTTDFTDGKRIDFDLY,-0.705
25,HMEEDPILVAQRFLNIFRQLHIFDQQRREEFNSMILALPPEIRGTFGVLPGGSVLQEYVDELEISKGMA,-1.11
